Source: the nanobody polyreactivity screen of Harvey et al. (2022)

Assay: yeast display, Sf9 membrane polyspecificity reagent, FACS + sequencing; frameworks hold sequencing errors
Summary of the method: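 A nanobody's polyreactivity label depends on the gate it was sorted from. Yeast display cells were stained with 10% biotinylated, detergent-solubilized Sf9 membrane reagent for 1 hour at 4 °C, enriched on streptavidin microbeads and sorted by FACS. The low and high (top ~1%) gates were set on anti-HA fluorescence for expression and streptavidin fluorescence for reagent binding.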

| Sequence | polyreactivity (PSR sort gate) |
| --- | --- |
| QVQLVESGGGLVQAGGSLRLSCAASGLTFLNNAMGWYRQAPGKERELVAAISDGGSTNYADSVKGRFTISRDNAKNTVYLQMNSLKPEDTAVYYCAARVRGDYGHKYYQFDYWGQGTQVTVSS | low polyreactivity |
| QVQLVESGGGLVQAGGSLRLSCAASGFTFVRYAMGWYRQAPGKERELVAAISSGGRTYYADSVKGRFTISRDNAKNTVYLQMNSLKPEDTAVYYCAADTKFGYGYWGQGTQVTVSS | high polyreactivity |
| QVHLVESGGGLVQAGGSLRLSCAASGRTFVAYAMGWYRQAPAKERELVARISSGGSTYYADSVKGRFTISRDNAKNTVYLQMNSLKPEDTAVYYCAADRGPFFVPWRRYDYWGQGTEVTVSS | low polyreactivity |
| QGQLVESGGGLVHAGGRLRLSCAASGSTFTTYAMGWYRQAPGTERELVAAISTNGGRTFYADSVKGRFTISRDNAKTTFYLQMNSLKTEDTAVYYCAAQYGLYAPGYYYWGHGTQVTVSS | low polyreactivity |
| QVQLVESGGGLVQAGGSLRLSCASSGSIFQYYVMGWYRPAPGKERELVAAMRRSGTTYYADSVKGRFTISRDNAKHTLDLQMNSLKPEDTAVYYCNKVRGQEPSNYDYWGQGTQVTVSS | low polyreactivity |
| QVQLVESGGGLVQAGGSLRLSCAASGSIFYYNAMGWYRQAPGKERELVATIRSGGNTNYADSVKGRFTISRDNAKNTVYLQMNSLKPEDTAVYYCAARGAYHGYRYDSWGQGTQVTVSS | low polyreactivity |
| QVQLVESGGGLVQAGGSLRLSCAASGRIFPPYAMGWYRQAPGKERELVAAISCGGSRTYYADSVKGRFTISRDNAKNTVYLQMNSLKPEDTAVYYCAAKNYLAKSGDYWGQGTQVTVSS | high polyreactivity |
| QVQLVESGGGLVQAGGSLRLSCAPSGIIFYGNAMGWYRPAPGKERELVAAITRSGVRTYYADSVKGRFTISRDNAKKTGYLQMNSLNPEDSAVSYCAAVKPVSSRHYPYDYWGQGTQVTVSS | high polyreactivity |
| QVQLVESGGGLVQAGGSLRLSCAASGSTSGTNAMGWYRQAPGKERELVATISRRGGSTYYADSVKGRFTISRDNAKNTVYLQMNSLKQDYTAVYYCAARTYGYFLYDYWGQGTQVTVSS | high polyreactivity |
| QVQLVESGGGLVQAGGSLRLSCAASGSIFATYAMGWYIQAPGKERELVASITTDGSTHYADSVKGRFTISRDNAKNTVYLQMNSLKPEDTAVYYCNTETGPSPVPVYDTEFDSWGQGTQVTVSS | low polyreactivity |
| QVQLVESGGGLVQAGGSLRLSCAASGRIFTRNAMGWYRQAPGKERELVAAISGTGGSTYYADSVKGRFTISRDNAKNTVYLQMNSLKPEDTAVYYCAASRARTRSAYNYWGQGTQVTVSS | high polyreactivity |
| QVQLEESGGGLVQAGGRLRLSCAASGRTITRNAMGWYRQAPGKERELVAAISSRGGSTSYADSVKGRFTISRDNAKNTFYLQMNSLKPEDTAVYYCNKKTAASDYDYWGQGTQVTVSS | high polyreactivity |
| QVQLVESGGGLFQAGRSLRLSCAASGRIFVANAMGWYRQAPGIERELVAAISGRGSRTYYADSVKGRFTISRDNAKNTVYLQMNSLKPEDTAVYYCAARYRYDGRYDYWGQGTQVTVSS | high polyreactivity |
| QVQLVESGGGLVQAGGSLRLSCAASGFIFNRYAMGRYRQAPGKERELVAAISSGGNTHYADSVKWRFTISRDNAKNTVLLQMNSLKPEDTAVYYCAKAFRHSTFFAPYDYWGQGSQVTVSS | low polyreactivity |
| QVQLVESGGGLVQAGGSLRLICAASGSTFKRYAMGWYRQAPGKERELVAAISLSSGSTYYADSVKGRFTISRDNAKNTVYLQMNSLKPEDTAVYYCNAAKTYPDVYEYDYWGQGTQVTVSS | high polyreactivity |
| QVQLVESGGGLVQAGGSLRLSCASSGYTFALYAKGWYRQAPGKERELVAAITDSDGSTYADSVKGRFTITRDNAKNTVYLQMNSVKPEDTAVYYCAAESEQWYSYVLSYDWEYDYWGQGTQVTVSS | low polyreactivity |
| QVQLVESGGGLVQAGGSLRLSCAASGLIFSAYAMGWYRQAPGKERELVAGISRRGSTYYADSVKGRFTISRDNAKNTVYLEMNCLKPEDTAVYYFAAFFRVRFRASGYDYWGQGTQVTVSS | high polyreactivity |
| QVQLVESGGGLVQAGGSLRLSCAASGTIFLYYAMGWYRQAPGKERELVAGINRVGSTNYADSVKGRFTISRDNAKNTVYLQMNSLKPEDTAVFYCNKAATRSRSRGYWGQGTQVNVSS | low polyreactivity |
| QVQLVESGGGLVQAGGSLRLSCAASGSIFKYYAMGWYRQAPGKERELVAAISTGGTTNYADYVKGRFTISRDNAKNTVYLQMNSLKPEDTAVYYCNRDYLVRSRYKYYYWGQGTQVTVSS | low polyreactivity |
| QVQLVESGGGLVQAGGSLRLSCAASGSTFKVNDMGWYRQAPGKERELVAAIDKSGGTTYYADSVKGRFTISRDNAKNTVYLQMNSLKPEDTAVYYCAADVIYEMDYWGQGTQVTVSS | low polyreactivity |
| QVQLVESGGGLVQAGGSLRLSCAASGITFYYYAMGWYRQAPGKERELVARISYGGGRTYYADSVKGRFTISRDNAKNTVYLQMNSLKPEDTAVYYCAARQGYRSYRRYDYWGQGTQVTVSS | high polyreactivity |
| QVQLVESGGGLVQAGGSLRFSCAASGGIFFRNAMGWYRQAPGKERELVAVISSGGSTYYADSVKGRFTISRDNAKNTVYLQMNSLKPEDTAVYYCAARRKRPVYTVTLHYPYNYWGQGTQVTVSS | high polyreactivity |
| QVQLVESGGGLVQAGGSLRLSCAASGLILKYYAMGWYRQAPGKEREFVAAISSSGTRTYADSVKGRFTISRDNAKNTVYLQMNSLKPEDTAVYYCAKDYRVWVAATIAHDYWGQGTQVTVSS | low polyreactivity |
| QVQLVESGGGLVQAGGSLRLSCAASGSIFVNNAMGWYRQAPGKERELVAAITCSTGSTYYADSVKGRFTISRDNAKNTVYLQMNSLKPEDTAVYYCAATSYTATWRYYYWGQGTQVTVSS | high polyreactivity |
| QVQLVESGGGLVQAGGSLRLSCAASGSTLSFNAMGWYRQAPGKERELVAGITYSGGSTYYADSVKGRFTISRDNAKNTVYLQMNILKPEDTAVYYCNKASGVYYGHLDYWGQGTQVTVSS | low polyreactivity |
| QVQLVESGGGLVQAGGSLRLSCAASGLILNYYTMGWYRQAPGKERELVATISSSTGSTYYADSVKGRFTISRDNAKNTVYLQMNSLKPEDTAVYYCASDHWSYWQIYDYWGQGTQVTVSS | low polyreactivity |
| QVQLVESGGGLVQAGGSLRLSCAASGYTFKTYAMGWYIQAPGKERELVAAISGSGGSTYYADSVMGRFTISRDNAKNTVYLQLKSLKPEDTEVYYCAATNWWGTEYDYWGQGTQVTVSS | high polyreactivity |
| QVQLVESGGGLVQAGGSLRLSCAASGSTFRFNTMGWYRQAPGKERELVAAITRGGSTNYADSVKGRFTISRDNAKNTVYLQMNSLKPEDTAVYYCNTTRYSVRKYDYWGQGTQVTVSS | low polyreactivity |
| QVQLVESGGGLDQAGGSLRLSCAASGNTFFWPNAMGWYRQAPGKERELFAGISYRGASTYYADSVKGRFTISRDNAKNTVYLQMNSLKPEDTAVYYCAADNTPRGRRQNRDMYYWGQGTQVTVSS | high polyreactivity |
| QVQLVESGGGLFQAGGRLRLSCAASGSTFGYNAMGWYREAPGKERELVAAISYSSGSTYYADSVKGRFTISRDNAKNTVYLQMNSLKPEDTAVYYCAVVSRASRRGGRYDYWGQGTQVTVSS | high polyreactivity |
